# Assay results published in patent US20150098939A1 (Sanofi, published 2015).
# T1: primate GPVI-Fc fusion protein (Macaca fascicularis) (Macaca fascicularis (cynomolgus), UniProt Q9HCN6 21-205 (human entry))
# T1 construct: also called Maccaca GPVI-Fc; primate GPVI-Fc protein; not shown: Fc part of the primate GPVI-Fc fusion is not described
# T1 chain: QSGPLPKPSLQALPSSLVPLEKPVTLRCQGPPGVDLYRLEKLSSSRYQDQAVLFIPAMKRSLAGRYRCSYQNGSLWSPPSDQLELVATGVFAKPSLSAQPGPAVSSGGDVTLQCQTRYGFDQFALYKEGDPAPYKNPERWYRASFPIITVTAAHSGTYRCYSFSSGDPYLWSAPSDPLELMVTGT
# T2: human GPVI protein, soluble extracellular domain (D1 and D2) (human, UniProt Q9HCN6 21-267)
# T2 construct: extracellular domain; also called hGPVI; human glycoprotein VI
# T2 sequence (looked up): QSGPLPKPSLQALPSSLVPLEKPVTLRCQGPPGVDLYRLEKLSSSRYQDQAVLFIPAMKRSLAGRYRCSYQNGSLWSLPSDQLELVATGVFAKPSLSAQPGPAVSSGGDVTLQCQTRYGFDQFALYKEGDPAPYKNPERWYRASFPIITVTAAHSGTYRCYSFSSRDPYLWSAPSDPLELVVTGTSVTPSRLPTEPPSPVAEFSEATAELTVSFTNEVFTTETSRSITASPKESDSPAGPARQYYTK
# B1: anti-GPVI mAb from hybridoma clone 390 (antibody, mouse IgG1, kappa, V domains shown)
# VH: QVQLKESGPGLVAPSQSLSITCTVSGFSLTGYGVNWVRQPPGKGLEWLGMIWGDGSTDYNSTLKSRLSISKDNSKSQVFLKMNSLQTDDTARYYCARDLPMDYWGQGTSVTVSS
# VL: DIQMTQSPSSLSASLGGKVTITCKASQDINKYIAWYQHKPGKGPSLLIHYTSTLQPGIPSRFSGSGSGRDYSFSISNLEPEDIATYYCLQYANLLTFGGGTKLEIKR
# modifications: N-glycosylation site (NST) in the heavy chain variable region is occupied
# notes: Mouse IgG1, kappa, purified from hybridoma; also called monoclonal antibody from clone 390; IgG from hybridoma clone 390
# B2: Fab produced by Ficin cleavage of IgG from hybridoma clone 390 (Fab, V domains shown)
# VH: B1 VH
# VL: B1 VL
# notes: Proteolytic Fab; also called Fab (Ficin cleavage); proteolytic Fab fragment
# How the values were obtained:
# hGPVI-hFc fusion protein [1] = target: T3, hGPVI-hFc fusion protein (human); assay: competition ELISA: purified IgG pre-incubated with hGPVI-Fc, mixture added to collagen-coated plate, bound GPVI-Fc detected with anti-human IgG-Fc-HRP (OD 450 nm); blocked ligand: collagen
# T3 construct: also called GPVI-Fc; human GPVI-Fc fusion protein
# Experimental: (§1) A secondary screening was performed to characterize functional properties of all human GPVI-specific mAbs for their ability to block the binding of collagen to human GPVI-Fc fusion protein in a competition ELISA binding assay. Custom-made collagen coated 96-well plates (Pierce) were used. Pre-incubated mixture of human GPVI-Fc fusion protein and hybridoma supernatants were added to the plate and collagen-human GPVI-Fc complex was detected by using goat anti-human IgG-Fc conjugated with horseradish peroxidase (Sigma; #A0170). The antibody binding was visualized by adding TMB-H2O2 buffer and read at a wavelength of 450 nm. […] The blocking properties of pre-selected mAbs to human GPVI were confirmed to be dose-dependent using a competition ELISA assay as shown in FIG. 1A.
# hGPVI-hFc fusion protein [2] = target: T3, hGPVI-hFc fusion protein; assay: DELFIA competition assay: IgG preincubated with GPVI-Fc (3 µg/ml), binding to collagen-coated plate, Test 2
# Experimental: (§2) Collagen coated 384 well plates (Pierce) were blocked with 3% BSA for 2 h. Increasing concentrations of IgG or its corresponding Fab fragment produced by Ficin cleavage (0.3-20 μg/ml) were incubated with recombinant GPVI (Fc-fusion protein of the extracellular GPVI domain; 3 μg/ml) for 30 min. The GPVI-IgG mixture was added to collagen coated plates and incubated for 1 h at RT. Next, 384 well plates were washed (DELFIA wash buffer, Perkin Elmer) five times and Eu-labelled anti-human IgG (100 ng/ml Perkin Elmer) was added. Following 1 h incubation at room temperature plates were washed again five times, enhancement solution (Perkin Elmer) was added and incubated for 10 min. Fluorescence was detected at 360/612 nm using a Tecan Ultra reader.
# [3] = target: T1, primate GPVI-Fc fusion protein (Macaca …); assay: competition ELISA against Maccaca GPVI-Fc: inhibition by purified IgG of the binding of GPVI-Fc to collagen; blocked ligand: collagen
# hGPVI-hFc fusion protein [4] = target: T3, hGPVI-hFc fusion protein; assay: competition ELISA, hGPVI-Fc on collagen-coated plates (FIG. 1A)
# Experimental: as §1
# hGPVI-hFc fusion protein [5] = target: T3, hGPVI-hFc fusion protein; assay: DELFIA competition assay: IgG preincubated with GPVI-Fc (3 µg/ml), binding to collagen-coated plate, Test 1
# Experimental: as §2
# [6] = target: T2, human GPVI protein, soluble …; assay: SPR (BIAcore 2000), mAb captured by anti-Fc, human GPVI in solution
# Experimental: A last screening was performed by Surface Plasmon Resonance (BIAcore 2000) to evaluate binding properties of GPVI blocking antibodies. In this analysis, we evaluated the interaction of the human GPVI protein with the anti-human GPVI mAbs fixed to anti-Fc antibody covalently linked to CM chips. Binding kinetics of the individual mAbs were performed using the protocol described by Canziani et al 2004. Anal. Biochem. 325: 301-307.
# hGPVI-hFc fusion protein [7] = target: T3, hGPVI-hFc fusion protein; assay: DELFIA competition assay: Fab preincubated with GPVI-Fc (3 µg/ml), binding to collagen-coated plate, Test 1
# Experimental: as §2
# hGPVI-hFc fusion protein [8] = target: T3, hGPVI-hFc fusion protein; assay: DELFIA competition assay: Fab preincubated with GPVI-Fc (3 µg/ml), binding to collagen-coated plate, Test 2
# Experimental: as §2
Binder,IC50 (read off the curve) (hGPVI-hFc fusion protein [1]) [µg/mL],IC50 (hGPVI-hFc fusion protein [2]) [µg/mL],IC50 (read off the curve) [3] [µg/mL],IC50 (hGPVI-hFc fusion protein [4]) [µg/mL],IC50 (hGPVI-hFc fusion protein [5]) [µg/mL],Kd [6] [nM],koff [6] [s⁻¹],kon [6] [M⁻¹ s⁻¹],IC50 (hGPVI-hFc fusion protein [7]) [µg/mL],IC50 (hGPVI-hFc fusion protein [8]) [µg/mL]
B1,~3,5,~5,< 10,5.6,0.04,4e-06,108000,–,–
B2,–,–,–,–,–,–,–,–,1.3,1.1
